Reference: patent US20170058297A1

Experiments:
[1] = target: Cre-A1 (P1 Bacteriophage) (UniProt P06956); assay: cell-based or functional assay
[2] = target: Cre-B1 (P1 Bacteriophage) (UniProt P06956); assay: cell-based or functional assay
Cre-B1 = target: T1, Cre-B1
T1 chain: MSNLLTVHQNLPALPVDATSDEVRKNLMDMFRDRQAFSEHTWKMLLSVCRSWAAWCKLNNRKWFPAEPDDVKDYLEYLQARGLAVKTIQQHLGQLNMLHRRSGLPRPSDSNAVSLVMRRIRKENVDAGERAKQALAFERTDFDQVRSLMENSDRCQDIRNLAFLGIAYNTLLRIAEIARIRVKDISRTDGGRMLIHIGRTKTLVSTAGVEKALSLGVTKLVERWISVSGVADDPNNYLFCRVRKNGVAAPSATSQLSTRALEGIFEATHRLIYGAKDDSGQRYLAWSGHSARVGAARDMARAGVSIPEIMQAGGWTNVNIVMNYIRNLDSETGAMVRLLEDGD

B1: Cre-A1 (protein)
chain: MSNLLTVHQNLPALPVDATSDEVRRNLMRMFELRRAFSEHTWKMLLSVCRSWAAWCKLNNRKWFPAEPEDVRDYLLYLQARGLAVKTIQQHLGQLNMLHRRSGLPRPSDSNAVSLVMRRIRKENVDAGERAKQALAFERTDFDQVRSLMENSDRCQDIRNLAFLGIAYNTLLRIAEIARIRVKDISRTDGGRMLIHIGRTKTLVSTAGVEKALSLGVTKLVERWISVSGVADDPNNYLFCRVRKNGVAAPSATSQLSTRALEGIFEATHRLIYGAKDDSGQRYLAWSGHSARVGAARDMARAGVSIPEIMQAGGWTNVNIVMNYIRNLDSETGAMVRLLEDGD
Question: Which RFP positive cells of 7000 sorted, Ai14 mouse ES reporter cells, promoter hbb + cmv, replicate 1 [1] does the source give for B1 here?
Answer: 3850 cells

Question: And the RFP positive cells of 7000 sorted, Ai14 mouse ES reporter cells, promoter hbb + cmv, replicate 2 [1]?
Answer: 3530 cells

Question: What about the RFP positive cells of 7000 sorted, Ai14 mouse ES reporter cells, promoter hbb + cmv, replicate 3 [1] of the same binder?
Answer: 3690 cells

Question: And the RFP positive cells of 7000 sorted, Ai14 mouse ES reporter cells, promoter hbb + sp1, replicate 1 [1]?
Answer: 3750 cells

Question: And the RFP positive cells of 7000 sorted, Ai14 mouse ES reporter cells, promoter hbb + sp1, replicate 2 [1]?
Answer: 3420 cells

Question: And the RFP positive cells of 7000 sorted, Ai14 mouse ES reporter cells, promoter hbb + sp1, replicate 3 [1]?
Answer: 3500 cells

Question: And the RFP positive cells of 7000 sorted, Ai14 mouse ES reporter cells, promoter hbb, replicate 1 [1]?
Answer: 414 cells

Question: What about the RFP positive cells of 7000 sorted, Ai14 mouse ES reporter cells, promoter hbb, replicate 2 [1] of the same binder?
Answer: 378 cells

Question: What about the RFP positive cells of 7000 sorted, Ai14 mouse ES reporter cells, promoter hbb, replicate 3 [1] of the same binder?
Answer: 391 cells

Question: And the RFP positive cells of 7000 sorted, Ai14 mouse ES reporter cells, promoter hbb + cmv, replicate 1 [2]?
Answer: 5870 cells

Question: What about the RFP positive cells of 7000 sorted, Ai14 mouse ES reporter cells, promoter hbb + cmv, replicate 2 [2] of the same binder?
Answer: 6030 cells

Question: What about the RFP positive cells of 7000 sorted, Ai14 mouse ES reporter cells, promoter hbb + cmv, replicate 3 [2] of the same binder?
Answer: 6360 cells

Question: And the RFP positive cells of 7000 sorted, Ai14 mouse ES reporter cells, promoter hbb + sp1, replicate 1 [2]?
Answer: 5700 cells

Question: And the RFP positive cells of 7000 sorted, Ai14 mouse ES reporter cells, promoter hbb + sp1, replicate 2 [2]?
Answer: 6120 cells

Question: And the RFP positive cells of 7000 sorted, Ai14 mouse ES reporter cells, promoter hbb + sp1, replicate 3 [2]?
Answer: 5990 cells

Question: And the RFP positive cells of 7000 sorted, Ai14 mouse ES reporter cells, promoter hbb, replicate 1 [2]?
Answer: 1120 cells

Question: And the RFP positive cells of 7000 sorted, Ai14 mouse ES reporter cells, promoter hbb, replicate 2 [2]?
Answer: 1210 cells

Question: What about the RFP positive cells of 7000 sorted, Ai14 mouse ES reporter cells, promoter hbb, replicate 3 [2] of the same binder?
Answer: 1320 cells

Question: What about the “recombinase activity in vitro (loxP excision, gel)” value (Cre-B1) of the same binder?
Answer: the combined pair of redesigned mutants was active (Cre-A1+Cre-B1

Question: What about the “recombinase activity in vitro (loxP excision, gel)” value of the same binder?
Answer: one of the mutants (Cre-A1) was active individually
